The results in this text go back to paper PMC4125234.

The assay has as its target CMG2-Fc fusion protein (capillary morphogenesis protein 2 amino acids 1-225 fused to the Fc fragment of human IgG1) (human) (UniProt P58335). Nature of the assay: BLI.
UniProt P58335, sequence (P58335 34-225): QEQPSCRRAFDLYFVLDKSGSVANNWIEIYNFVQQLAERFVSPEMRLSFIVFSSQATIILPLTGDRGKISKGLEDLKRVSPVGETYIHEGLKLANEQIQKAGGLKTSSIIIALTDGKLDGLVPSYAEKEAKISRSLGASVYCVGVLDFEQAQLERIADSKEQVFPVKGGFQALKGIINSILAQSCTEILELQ

A word on the Kd: it is a measure of binding affinity in units of concentration. What is called koff is the first-order rate constant of dissociation. Read a high koff as a short-lived complex. Usually kon stands for a measure of how fast the partners come together. A lower kon goes with slow association. As to “protective antigen (PA) of anthrax toxin (natural protein)”, the equilibrium dissociation constant (Kd) was 0.84 nM, the koff worked out at 9.7e-06 s⁻¹ and the on-rate (kon) came out at 11500 M⁻¹ s⁻¹.
